One data set deals with T1, S. cerevisiae RS (Saccharomyces cerevisiae, UniProt P38145).
T1 sequence (P38145 1-238): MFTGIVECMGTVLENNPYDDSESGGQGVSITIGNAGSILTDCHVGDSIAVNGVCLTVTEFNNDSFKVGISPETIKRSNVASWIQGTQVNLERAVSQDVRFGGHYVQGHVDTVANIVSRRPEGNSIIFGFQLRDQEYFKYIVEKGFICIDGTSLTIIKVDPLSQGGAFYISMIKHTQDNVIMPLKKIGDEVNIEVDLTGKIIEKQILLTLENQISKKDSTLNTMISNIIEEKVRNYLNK
The settings on record: 37° C.; cited from earlier work.

The target in another data set is yeast LS (Saccharomyces cerevisiae, UniProt P50861). The settings on record: 37° C.; cited from earlier work.
Another data set concerns the target T2, B. subtilis RS (Bacillus subtilis, UniProt P16440).
T2 sequence (P16440 whole entry, looked up): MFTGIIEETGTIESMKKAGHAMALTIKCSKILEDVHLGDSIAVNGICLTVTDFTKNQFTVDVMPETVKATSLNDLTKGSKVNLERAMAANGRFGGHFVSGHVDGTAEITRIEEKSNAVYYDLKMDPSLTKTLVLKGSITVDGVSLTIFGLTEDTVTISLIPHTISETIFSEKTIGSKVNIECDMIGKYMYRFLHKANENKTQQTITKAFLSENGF
The settings on record: 37° C.; cited from earlier work.

Data set [1] concerns purified recombinant spinach RS. Description: Riboflavin synthase assay (riboflavin formation from DMRL, 470 nm). The format is biochemical, spinach (Spinacea oleracea). The settings on record: 25° C., based on protomer. As to the method: Riboflavin synthase assays were run using 1-mL reaction mixtures containing 0.1 mM DMRL in 50 mM Tris-Cl (pH 7.5) at 25° C. Reactions were initiated by the addition of purified recombinant spinach RS and initial rates of the reactions were measured continuously at 470 nm. A molar extinction coefficient (ε) of 9500 at 470 nm was used to calculate the formation of riboflavin (Plaut, G. W. E. and Harvey, R. A., Methods in Enzymology (McCormick, D. B. and Wright L. D., eds.) vol. 18, part B, pp. 515-538, Academic Press, N.Y. (1971)).

The next data set has as its target E. coli LS (Escherichia coli, UniProt P61714). The settings on record: 37° C.; cited from earlier work.
The target of a further data set is T3, B. subtilis LS (Bacillus subtilis, UniProt P11998).
T3 sequence (P11998 whole entry, looked up): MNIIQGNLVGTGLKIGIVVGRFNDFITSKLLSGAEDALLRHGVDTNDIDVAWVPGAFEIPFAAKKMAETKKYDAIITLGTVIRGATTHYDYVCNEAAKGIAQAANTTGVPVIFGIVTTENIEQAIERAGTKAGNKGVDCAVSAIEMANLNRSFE
The settings on record: 37° C.; cited from earlier work.

The values below come from US6682891B2, “Methods of identifying nucleic acid sequences encoding plant riboflavin synthase enzymes” (E. I. du Pont de Nemours and Company, priority 1997, dated 2004).

B1: S. cerevisiae RS: yeast riboflavin synthase, literature comparison (Santos et al.) (protein, UniProt P38145 1-238, looked up)
Riboflavin synthase: MFTGIVECMGTVLENNPYDDSESGGQGVSITIGNAGSILTDCHVGDSIAVNGVCLTVTEFNNDSFKVGISPETIKRSNVASWIQGTQVNLERAVSQDVRFGGHYVQGHVDTVANIVSRRPEGNSIIFGFQLRDQEYFKYIVEKGFICIDGTSLTIIKVDPLSQGGAFYISMIKHTQDNVIMPLKKIGDEVNIEVDLTGKIIEKQILLTLENQISKKDSTLNTMISNIIEEKVRNYLNK
On to B1, for which the reported turnover number in the data set with S. cerevisiae RS was 0.13 s⁻¹.

B2: yeast LS: purified yeast lumazine synthase, literature comparison (protein, UniProt P50861 1-169, looked up)
6,7-dimethyl-8-ribityllumazine …: MAVKGLGKPDQVYDGSKIRVGIIHARWNRVIIDALVKGAIERMASLGVEENNIIIETVPGSYELPWGTKRFVDRQAKLGKPLDVVIPIGVLIKGSTMHFEYISDSTTHALMNLQEKVDMPVIFGLLTCMTEEQALARAGIDEAHSMHNHGEDWGAAAVEMAVKFGKNAF
Consider B2, for which the reported turnover number in the data set with yeast LS is 0.06 s⁻¹.

B3: B. subtilis RS: B. subtilis riboflavin synthase, literature comparison (Bacher et al.) (protein, UniProt P16440 1-215, looked up)
Riboflavin synthase: MFTGIIEETGTIESMKKAGHAMALTIKCSKILEDVHLGDSIAVNGICLTVTDFTKNQFTVDVMPETVKATSLNDLTKGSKVNLERAMAANGRFGGHFVSGHVDGTAEITRIEEKSNAVYYDLKMDPSLTKTLVLKGSITVDGVSLTIFGLTEDTVTISLIPHTISETIFSEKTIGSKVNIECDMIGKYMYRFLHKANENKTQQTITKAFLSENGF
As to B3, the reported turnover number in the data set with B. subtilis RS was 0.33 s⁻¹.

B4: recombinant spinach RS: purified recombinant mature spinach riboflavin synthase expressed in E. coli, without transit peptide (SEQ ID NO:8) (protein)
chain: MFTGIVEEIGRVKQMGYGEDGGFQLKVVGDIVLKDVNLGDSIAVNGTCLTVTEFDTKASEFTLGIAPETLRKTALMDLEPGSVVNLERALLPSTRMGGHFVQGHVDGTGEIVSLVEEGDSLWVKIKTSPEILRYIVPKGFIAIDGTSLTVVDVFDQELCFNIMLVAYTQQNVVIPLKKVGQKVNLEVDILGKYVERLLSSSGVLDPTKFT
For the molecule B4, in data set [1], the turnover number entry is reported as “approximately 0.08 /sec”.

B5: E. coli LS: purified E. coli lumazine synthase, literature comparison (protein, UniProt P61714 1-156, looked up)
6,7-dimethyl-8-ribityllumazine …: MNIIEANVATPDARVAITIARFNNFINDSLLEGAIDALKRIGQVKDENITVVWVPGAYELPLAAGALAKTGKYDAVIALGTVIRGGTAHFEYVAGGASNGLAHVAQDSEIPVAFGVLTTESIEQAIERAGTKAGNKGAEAALTALEMINVLKAIKA
As for B5, the reported turnover number with E. coli LS is 0.06 s⁻¹.

B6: B. subtilis LS: purified B. subtilis lumazine synthase, literature comparison (protein, UniProt P11998 1-154, looked up)
6,7-dimethyl-8-ribityllumazine …: MNIIQGNLVGTGLKIGIVVGRFNDFITSKLLSGAEDALLRHGVDTNDIDVAWVPGAFEIPFAAKKMAETKKYDAIITLGTVIRGATTHYDYVCNEAAKGIAQAANTTGVPVIFGIVTTENIEQAIERAGTKAGNKGVDCAVSAIEMANLNRSFE
Consider B6, for which the reported turnover number with B. subtilis LS was 0.06 s⁻¹.
